Measurements taken from patent US20160010082A1.

Biological target: Alexa labeled human IgG
Test: flow cytometry of E. coli displaying the construct, 300 nM Alexa labeled human IgG; two hour induction; reference CPX display

fold higher display level than from CPX: 3 fold
Substance: eCPX displaying the mini-Z-domain at the N-terminus
